From IntAct's records for PubMed 12839993

B1: Cullin-1 (Arabidopsis thaliana (Mouse-ear cress)), Q94AH6 (parent)
chain: MERKTIDLEQGWDYMQTGITKLKRILEGLNEPAFDSEQYMMLYTTIYNMCTQKPPHDYSQQLYDKYREAFEEYINSTVLPALREKHDEFMLRELFKRWSNHKVMVRWLSRFFYYLDRYFIARRSLPPLNEVGLTCFRDLVYNELHSKVKQAVIALVDKEREGEQIDRALLKNVLDIYVEIGMGQMERYEEDFESFMLQDTSSYYSRKASSWIQEDSCPDYMLKSEECLKKERERVAHYLHSSSEPKLVEKVQHELLVVFASQLLEKEHSGCRALLRDDKVDDLSRMYRLYHKILRGLEPVANIFKQHVTAEGNALVQQAEDTATNQVANTASVQEQVLIRKVIELHDKYMVYVTECFQNHTLFHKALKEAFEIFCNKTVAGSSSAELLATFCDNILKKGGSEKLSDEAIEDTLEKVVKLLAYISDKDLFAEFYRKKLARRLLFDRSANDDHERSILTKLKQQCGGQFTSKMEGMVTDLTLARENQNSFEDYLGSNPAANPGIDLTVTVLTTGFWPSYKSFDINLPSEMIKCVEVFKGFYETKTKHRKLTWIYSLGTCHINGKFDQKAIELIVSTYQAAVLLLFNTTDKLSYTEILAQLNLSHEDLVRLLHSLSCAKYKILLKEPNTKTVSQNDAFEFNSKFTDRMRRIKIPLPPVDERKKVVEDVDKDRRYAIDAAIVRIMKSRKVLGHQQLVSECVEQLSRMFKPDIKAIKKRMEDLITRDYLERDKENPNMFRYLA

What was measured:
[1] = variants of: B1; conditions: with skp1a_arath SKP1A
[2] = variants of: B1; conditions: with iaa7_arath IAA7, Q38825
Sequence of iaa7_arath IAA7, Q38825 (Q38825 whole entry): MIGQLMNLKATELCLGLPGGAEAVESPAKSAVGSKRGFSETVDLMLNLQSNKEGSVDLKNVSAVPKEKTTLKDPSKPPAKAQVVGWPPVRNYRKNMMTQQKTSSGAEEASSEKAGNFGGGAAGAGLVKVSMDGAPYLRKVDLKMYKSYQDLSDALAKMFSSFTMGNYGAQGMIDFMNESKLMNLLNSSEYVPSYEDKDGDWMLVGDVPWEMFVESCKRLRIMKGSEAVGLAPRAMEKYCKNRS

| Variant | effect of a mutation on the interaction [1] | effect of a mutation on the interaction [2] |
| --- | --- | --- |
| F112I | decreasing interaction | decreasing interaction |
| F112V | decreasing interaction | decreasing interaction |
